This note sets out measurements from publication PMC10681713, “RAD51 paralogs synergize with RAD51 to protect reversed forks from cellular nucleases” (Nucleic Acids Research, 2023).

The stoichiometry N is a count of units in the complex or per binding partner.

In data set [1] the target is Flag-RAD51C (of the BCDX2 complex) (human) (UniProt O43502). Nature of the data set: native MS; purified BCDX2 in 500 mM ammonium acetate pH 7.5; low activation energy for the intact complex, in-source trapping (-50 to -250 V) to dissociate it.
Data set [2] deals with T1, BCDX2 (RAD51B-RAD51C-RAD51D-XRCC2) (Homo sapiens, UniProt O15315;O43502;O75771;O43543 1-384;1-376;1-328;1-280).
T1 sequence 1: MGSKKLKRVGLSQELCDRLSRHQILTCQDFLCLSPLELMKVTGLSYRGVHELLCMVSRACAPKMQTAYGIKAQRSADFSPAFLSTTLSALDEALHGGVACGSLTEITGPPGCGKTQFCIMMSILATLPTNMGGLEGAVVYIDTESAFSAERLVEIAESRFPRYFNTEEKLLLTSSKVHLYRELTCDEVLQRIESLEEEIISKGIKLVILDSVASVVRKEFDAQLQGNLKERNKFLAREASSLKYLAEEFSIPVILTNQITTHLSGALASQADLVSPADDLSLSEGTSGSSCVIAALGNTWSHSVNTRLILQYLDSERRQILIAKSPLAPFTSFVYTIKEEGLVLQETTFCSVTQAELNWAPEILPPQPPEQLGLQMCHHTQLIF
T1 sequence 2: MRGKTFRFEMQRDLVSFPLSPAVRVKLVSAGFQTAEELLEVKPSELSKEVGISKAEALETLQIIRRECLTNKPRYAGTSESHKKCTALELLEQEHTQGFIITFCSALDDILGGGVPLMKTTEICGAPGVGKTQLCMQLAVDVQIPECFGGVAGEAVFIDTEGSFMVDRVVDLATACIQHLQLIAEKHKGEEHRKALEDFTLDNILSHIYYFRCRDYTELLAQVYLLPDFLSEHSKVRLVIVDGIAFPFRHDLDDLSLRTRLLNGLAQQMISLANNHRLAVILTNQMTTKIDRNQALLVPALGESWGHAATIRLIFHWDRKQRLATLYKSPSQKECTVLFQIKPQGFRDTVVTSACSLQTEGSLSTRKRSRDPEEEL
T1 sequence 3: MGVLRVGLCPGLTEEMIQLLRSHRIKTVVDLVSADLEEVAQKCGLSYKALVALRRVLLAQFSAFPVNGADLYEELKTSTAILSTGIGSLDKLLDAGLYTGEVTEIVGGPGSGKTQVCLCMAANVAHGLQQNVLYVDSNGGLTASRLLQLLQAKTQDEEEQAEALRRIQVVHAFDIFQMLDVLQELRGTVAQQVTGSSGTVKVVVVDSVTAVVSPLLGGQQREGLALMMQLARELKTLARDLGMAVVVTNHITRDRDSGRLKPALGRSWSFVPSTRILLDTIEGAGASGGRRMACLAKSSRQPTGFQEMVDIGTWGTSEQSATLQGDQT
T1 sequence 4: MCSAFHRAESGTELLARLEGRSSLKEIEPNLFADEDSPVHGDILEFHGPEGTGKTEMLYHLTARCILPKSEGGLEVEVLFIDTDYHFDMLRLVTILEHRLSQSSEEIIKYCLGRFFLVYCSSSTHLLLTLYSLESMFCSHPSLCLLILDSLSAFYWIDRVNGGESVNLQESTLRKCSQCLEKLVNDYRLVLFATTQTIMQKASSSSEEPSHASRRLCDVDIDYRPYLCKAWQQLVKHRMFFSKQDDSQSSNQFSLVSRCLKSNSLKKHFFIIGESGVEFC
In words: EMSA; 1 mM ATP, 58 nM DNA; Buffer E (composition not in the material), 37 °C, 10 min; paralogs: 50 mM KCl, 1 mM ATP, 0.8% agarose gel; RAD51: 100 mM KCl, 2 mM ATP, 6% TBE-PAGE. The conditions noted are these: protein: recombinant, tags: N-terminal Flag on RAD51C, N-terminal His6 on XRCC2, TEV sites, copies: 1;1;1;1.

Data set [3] deals with T2, CX3 (RAD51C-XRCC3) (Homo sapiens, UniProt O43502;O43542 1-376;1-346).
T2 sequence 1: T1 sequence 2
T2 sequence 2: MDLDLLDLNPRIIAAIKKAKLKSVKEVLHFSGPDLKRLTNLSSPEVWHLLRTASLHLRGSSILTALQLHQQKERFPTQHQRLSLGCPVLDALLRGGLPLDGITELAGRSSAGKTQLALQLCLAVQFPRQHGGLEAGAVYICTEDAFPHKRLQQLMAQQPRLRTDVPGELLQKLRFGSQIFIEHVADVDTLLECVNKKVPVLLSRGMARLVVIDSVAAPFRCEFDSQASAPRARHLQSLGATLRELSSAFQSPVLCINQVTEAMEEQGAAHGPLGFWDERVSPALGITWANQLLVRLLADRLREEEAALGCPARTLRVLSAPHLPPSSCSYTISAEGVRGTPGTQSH
The data set is described as above. The conditions noted are these: protein: recombinant, tags: N-terminal His6-Flag on RAD51C, copies: 1;1, 25 bp duplex.

Data set [4] has as its target T3, His6-XRCC2 (of the BCDX2 complex) (human, UniProt O43543 1-280).
T3 construct: human XRCC2, cDNA; a TEV cutting site stands between the tag and the gene; No TEV cleavage is described in the purification; source: Expi293F cells, transfected, co-expressed from pcDNA3.4-tetrad-BCDX2; purified as part of the complex (Ni-NTA, anti-Flag M2 agarose, Superdex 200); not shown: His6, N-terminal, kept
T3 sequence (looked up): T1 sequence 4
In words: native MS; purified BCDX2 in 500 mM ammonium acetate pH 7.5; low activation energy for the intact complex, in-source trapping (-50 to -250 V) to dissociate it. The conditions noted are these: both partners purified.

With “RAD51B (from UniProt O15315 1-384) (natural protein)”, the stoichiometry N in data set [1] was 1.

B1: dsDNA 55 bp (oligo 13 + oligo 14) (dsDNA)
DNA 1: TTAGAGCTTAATTGCTGAATCTGGTGCTGTGGGTGAACCTGCAGGTGGGCAAAGA
DNA 2: TCTTTGCCCACCTGCAGGTTCACCCACAGCACCAGATTCAGCAATTAAGCTCTAA
Turning to B1, in data set [2] (label: 5' Cy3 on oligo 13, blunt), the binding result is “no binding”.

B2: 5' overhang DNA (oligo 7 + oligo 8) (mixed)
DNA 1: GGGTGAACCTGCAGGTGGGCAAAGA
DNA 2: ACGCTGCCGAATTCTACCAGTGCCTTGCTAGGACATCTTTGCCCACCTGCAGGTTCACCC
modifications: oligo 8: phosphorothioate bonds at both ends (first 5 and last 5 linkages)
With B2, the binding result in data set [3] (label: 5' Cy3 on oligo 7, 5' overhang 35 nt on strand 2) is given as “binds”; in data set [2] (label: 5' Cy3 on oligo 7, 25 bp duplex, 5' overhang 35 nt on strand 2) it was “binds”.

B3: 3' overhang DNA (oligo 9 + oligo 8) (mixed)
DNA 1: AGGCACTGGTAGAATTCGGCAGCGT
DNA 2: B2 DNA 2
modifications: oligo 8: phosphorothioate bonds at both ends (first 5 and last 5 linkages)
As to B3, the binding result in data set [3] (label: 3' Cy3 on oligo 9, 3' overhang 35 nt on strand 2) was “binds”; in data set [2] (label: 3' Cy3 on oligo 9, 25 bp duplex, 3' overhang 35 nt on strand 2), “binds”.

B4: RAD51D (natural protein, human, UniProt O75771 1-328, looked up)
chain: T1 sequence 3
notes: No tag is described on this chain; also called D (in BCDX2 and DX2); source: Expi293F cells, transfected, co-expressed with the other paralogs from one plasmid; purified as part of the complex (Ni-NTA, anti-Flag M2 agarose, Superdex 200)
On to B4, for which the “stoichiometry N” value in data set [4] came to 1.
